Laboratory results: paper PMC11655841 (Cell Death & Disease, 2024)

Key:
DARPin 1800 [1] = test: crystal structure; complex of DARPin and p73 domain mixed from purified proteins, isolated by SEC; sitting drop at 20 °C, 30% PEG2000MME, 0.15 M potassium bromide; settings: scale: DARPin 1800 per p73 OD
DARPin 1800 [2] = test: ITC; target proteins (p53 family domains) titrated to constant concentrations of DARPin; 25 °C; 50 mM HEPES pH 7.4, 150 mM NaCl, 0.5 mM TCEP; MicroCal VP-ITC
[3] = molecular target: the molecule itself; test: crystal structure; complex of DARPin and p73 domain mixed from purified proteins, isolated by SEC; sitting drop at 20 °C, 30% PEG2000MME, 0.15 M potassium bromide
DARPin B9 [4] = test: as above
DARPin B9 [5] = test: ITC; target proteins (p53 family domains) titrated to constant concentrations of DARPin; 25 °C; 50 mM HEPES pH 7.4, 150 mM NaCl, 0.5 mM TCEP; MicroCal VP-ITC
[6] = molecular target: DARPin 1800 LZ (DARPin 1800 dimerized via a leucine zipper) (yeast) (UniProt P03069); test: as above
[7] = molecular target: DARPin B9 LZ (DARPin B9 dimerized via a leucine zipper) (yeast) (UniProt P03069); test: as above
[8] = molecular target: DARPin 1800–1800 (DARPin 1800 fused to another DARPin 1800 via a (G4S)4 linker); test: as above
[9] = molecular target: DARPin B9-B9 (DARPin B9 fused to another DARPin B9 via a (G4S)4 linker); test: as above

stoichiometry N (DARPin 1800 [1]) | Kd (DARPin 1800 [2]) [nM] | stoichiometry N (p73 SAM domain per DARPin B9) (DARPin B9 [4]) | Kd (DARPin B9 [5]) [nM] | Kd [6] [nM] | Kd [7] [nM] | Kd [8] [nM] | Kd [9] [nM] | Binder | binding result [3]
2 | 94.5 | – | – | – | – | – | – | DEDTYYLQVRGRENFEILMKLKESLELMELVPQPLVDSYRQQQQLLQR (domain or fragment, UniProt O15350 351-398, looked up) [p73 oligomerization domain (aa 351–398 of TAp73α)] | binds
– | – | 1 | 58.8 | – | – | – | – | p73 SAM domain (aa 489–550 of TAp73α) (domain or fragment) ADPSLVSFLTGLGCPNCIEYFTSQGLQSIYHLQNLTIEDLGALKIPEQYRMTIWRGLQDLKQ | –
– | 67 | – | 309 | 4 | 64 | 13 | 46 | p73 DBD-OD-SAM (amino acids 112–550 of TAp73α) (domain or fragment) APVIPSNTDYPGPHHFEVTFQQSSTAKSATWTYSPLLKKLYCQIAKTCPIQIKVSTPPPPGTAIRAMPVYKKAEHVTDVVKRCPNHELGRDFNEGQSAPASHLIRVEGNNLSQYVDDPVTGRQSVVVPYEPPQVGTEFTTILYNFMCNSSCVGGMNRRPILIIITLEMRDGQVLGRRSFEGRICACPGRDRKADEDHYREQQALNESSAKNGAASKRAFKQSPPAVPALGAGVKKRRHGDEDTYYLQVRGRENFEILMKLKESLELMELVPQPLVDSYRQQQQLLQRPSHLQPPSYGPVLSPMNKVHGGMNKLPSVNQLVGQPPPHSSAATPNLGPVGPGMLNNHGHAVPANGEMSSSHSAQSMVSGSHCTPPPPYHADPSLVSFLTGLGCPNCIEYFTSQGLQSIYHLQNLTIEDLGALKIPEQYRMTIWRGLQDLKQ | –
